T1: Rpn1 (S. cerevisiae, UniProt P38764 1-993)
T1 sequence: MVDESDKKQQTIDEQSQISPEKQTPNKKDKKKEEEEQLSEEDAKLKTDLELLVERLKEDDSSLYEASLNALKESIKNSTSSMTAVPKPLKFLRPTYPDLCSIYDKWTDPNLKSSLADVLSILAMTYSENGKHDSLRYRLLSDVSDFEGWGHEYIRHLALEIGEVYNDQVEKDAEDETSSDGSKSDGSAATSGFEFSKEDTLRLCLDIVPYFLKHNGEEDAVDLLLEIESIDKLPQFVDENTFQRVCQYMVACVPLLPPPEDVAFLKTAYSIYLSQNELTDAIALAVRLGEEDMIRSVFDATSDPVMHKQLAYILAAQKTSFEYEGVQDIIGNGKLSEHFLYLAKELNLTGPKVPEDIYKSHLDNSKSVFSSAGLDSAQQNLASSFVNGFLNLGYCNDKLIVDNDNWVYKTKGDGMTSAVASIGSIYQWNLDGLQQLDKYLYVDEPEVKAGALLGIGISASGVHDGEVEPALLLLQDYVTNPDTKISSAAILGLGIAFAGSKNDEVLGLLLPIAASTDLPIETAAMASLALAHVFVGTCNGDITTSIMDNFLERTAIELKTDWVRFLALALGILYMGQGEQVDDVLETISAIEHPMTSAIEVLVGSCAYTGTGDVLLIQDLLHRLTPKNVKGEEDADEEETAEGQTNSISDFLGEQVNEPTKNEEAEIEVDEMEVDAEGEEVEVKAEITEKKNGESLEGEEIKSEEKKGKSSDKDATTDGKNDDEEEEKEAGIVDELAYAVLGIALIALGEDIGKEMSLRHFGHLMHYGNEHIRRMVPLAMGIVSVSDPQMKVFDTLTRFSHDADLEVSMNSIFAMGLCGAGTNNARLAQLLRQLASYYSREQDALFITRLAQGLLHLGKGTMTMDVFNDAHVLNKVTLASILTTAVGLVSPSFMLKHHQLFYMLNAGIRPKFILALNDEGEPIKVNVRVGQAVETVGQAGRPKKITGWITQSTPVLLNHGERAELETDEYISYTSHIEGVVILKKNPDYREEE

B1: Rpn2 (natural protein)
chain: MSLTTAAPLLALLRENQDSVKTYALESINNVVDQLWSEISNELPDIEALYDDDTFSDREMAALIASKVYYNLGEYESAVKYALAAKDRFDIDEKSQFVETIVSKSIEMYVQEASKQYTKDEQFYTKDIIDPKLTSIFERMIEKCLKASELKLALGIALEGYRLDIIESALKSKLDQDSTSENVKIINYLLTLAITTVTNSKFRSSILRKSFDFLMNMPNCDYLTLNKVVVNLNDAGLALQLFKKLKEENDEGLSAQIAFDLVSSASQQLLEILVTELTAQGYDPALLNILSGLPTCDYYNTFLLNNKNIDIGLLNKSKSSLDGKFSLFHTAVSVANGFMHAGTTDNSFIKANLPWLGKAQNWAKFTATASLGVIHKGNLLEGKKVMAPYLPGSRASSRFIKGGSLYGLGLIYAGFGRDTTDYLKNIIVENSGTSGDEDVDVLLHGASLGIGLAAMGSANIEVYEALKEVLYNDSATSGEAAALGMGLCMLGTGKPEAIHDMFTYSQETQHGNITRGLAVGLALINYGRQELADDLITKMLASDESLLRYGGAFTIALAYAGTGNNSAVKRLLHVAVSDSNDDVRRAAVIALGFVLLRDYTTVPRIVQLLSKSHNAHVRCGTAFALGIACAGKGLQSAIDVLDPLTKDPVDFVRQAAMIALSMILIQQTEKLNPQVADINKNFLSVITNKHQEGLAKFGACVAQGIMNAGGRNVTIQLENADTGTLDTKSVVGLVMFSQFWYWFPLAHFLSLSFTPTTVIGIRGSDQAIPKFQMNCYAKEDAFSYPRMYEEASGKEVEKVATAVLSTTARAKARAKKTKKEKGPNEEEKKKEHEEKEKERETNKKGIKETKENDEEFYKNKYSSKPYKVDNMTRILPQQSRYISFIKDDRFVPVRKFKGNNGVVVLRDREPKEPVALIETVRQMKDVNAPLPTPFKVDDNVDFPSA
B2: Rad23 (natural protein)
chain: MVSLTFKNFKKEKVPLDLEPSNTILETKTKLAQSISCEESQIKLIYSGKVLQDSKTVSECGLKDGDQVVFMVSQKKSTKTKVTEPPIAPESATTPGRENSTEASPSTDASAAPAATAPEGSQPQEEQTATTERTESASTPGFVVGTERNETIERIMEMGYQREEVERALRAAFNNPDRAVEYLLMGIPENLRQPEPQQQTAAAAEQPSTAATTAEQPAEDDLFAQAAQGGNASSGALGTTGGATDAAQGGPPGSIGLTVEDLLSLRQVVSGNPEALAPLLENISARYPQLREHIMANPEVFVSMLLEAVGDNMQDVMEGADDMVEGEDIEVTGEAAAAGLGQGEGEGSFQVDYTPEDDQAISRLCELGFERDLVIQVYFACDKNEEAAANILFSDHAD

Assays:
Rpn1 [1] = target: T1, Rpn1; test: cross-linking
Rpn1-Rpn2 unit = Rpn1-Rpn2 unit (S. cerevisiae, UniProt P38764 1-993; P32565 1-945); test: atomic force microscopy
Rpn1 [2] = target: T1, Rpn1; test: atomic force microscopy

Binder | binding result (Rpn1 [1]) | stoichiometry N (Rpn1-Rpn2 unit) | stoichiometry N (Rpn1 [2])
B1 | binds | – | –
B2 | – | 1 | 1
